Measurements as given in patent US20080241166A1 (DOMANTIS, published 2008).
Values belong to the binder of their own block, whether it stands above or below them.

Experiments:
[1] = target: T1, human TNFR1 (human p55 TNF receptor) (human, UniProt P19438 30-211, limits assumed); assay: selection from dAb libraries
T1 construct: also called TNF receptor 1; TNFα receptor
T1 sequence: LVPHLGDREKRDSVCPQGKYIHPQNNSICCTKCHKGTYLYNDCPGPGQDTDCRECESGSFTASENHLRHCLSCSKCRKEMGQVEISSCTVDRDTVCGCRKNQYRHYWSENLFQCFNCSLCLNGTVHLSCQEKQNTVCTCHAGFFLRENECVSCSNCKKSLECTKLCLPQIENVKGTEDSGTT

[2] = target: T2, mouse serum albumin (mouse, UniProt P07724 25-608); assay: capture ELISA: dAb on protein A, biotinylated MSA, streptavidin HRP
T2 construct: Biotinylated (about 2 biotins per molecule) in the capture ELISA; unlabelled on the CM5 chip; also called MSA; biotinylated MSA

[3] = target: EGFR (as used for the KD column of Table 10) (UniProt P00533 25-645, limits assumed); assay: method not described
[4] = target: T3, EGFR expressed on A431 cells (UniProt P00533 25-1210, limits assumed); assay: cell-based or functional assay
[5] = target: T3, EGFR expressed on A431 cells; assay: EGFR receptor binding assay: inhibition of biotinylated EGF binding to A431 cells; average
[6] = target: T3, EGFR expressed on A431 cells; assay: EGFR receptor binding assay: inhibition of biotinylated EGF binding to A431 cells; lowest value obtained
[7] = target: T3, EGFR expressed on A431 cells; assay: EGFR receptor binding assay: inhibition of biotinylated EGF binding to A431 cells; highest value obtained

T2 sequence (P07724 25-608 limits assumed): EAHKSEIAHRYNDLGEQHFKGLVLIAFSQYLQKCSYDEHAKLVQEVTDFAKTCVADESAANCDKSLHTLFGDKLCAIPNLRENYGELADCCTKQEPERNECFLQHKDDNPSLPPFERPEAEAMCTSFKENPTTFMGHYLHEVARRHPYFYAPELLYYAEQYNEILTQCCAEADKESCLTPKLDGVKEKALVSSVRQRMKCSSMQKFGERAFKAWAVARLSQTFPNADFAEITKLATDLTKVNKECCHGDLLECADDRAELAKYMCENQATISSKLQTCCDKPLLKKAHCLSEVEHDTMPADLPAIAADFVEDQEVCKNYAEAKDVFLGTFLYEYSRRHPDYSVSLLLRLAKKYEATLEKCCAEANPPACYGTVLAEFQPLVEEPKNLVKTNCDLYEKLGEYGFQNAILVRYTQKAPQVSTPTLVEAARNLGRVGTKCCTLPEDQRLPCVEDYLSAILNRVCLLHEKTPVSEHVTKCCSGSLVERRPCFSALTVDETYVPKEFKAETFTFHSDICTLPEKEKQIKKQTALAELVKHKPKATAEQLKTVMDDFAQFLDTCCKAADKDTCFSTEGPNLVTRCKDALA

binding result [1]: binds
B1: TAR2h-5 VH dAb (other)
VH: EVQLLESGGGLVQPGGSLRLSCAASGFTFDLYNMFWVRQAPGKGLEWVSFISQTGRLTWYADSVKGRFTISRDNSKNTLYLQMNSLRAEDTAVYYCAKTLEDFDYWGQGTLVTVSS
notes: TAR2-5 and TAR2h-5 are used for the same dAb; also called TAR2-5

binding result [2]: binds
B2: anti-serum albumin VH dAb, clone 36 (other)
VH: EVQLLESGGGLVQPGGSLRLSCAASGFTFWSYQMTWVRQAPGKGLEWVSSISSFGSSTLYADSVKGRFTISRDNSKNTLYLQMNSLRAEDTAVYYCAKGRDHNYSLFDYWGQGTLVTVSS
notes: ranges to be checked

binding result [2]: binds
B3: anti-serum albumin VH dAb, clones 8, 10 (other)
VH: EVQLLESGGGLVQPGGSLRLSCAASGFTFWVYQMDWVRQAPGKGLEWVSSISAFGAKTLYADSVKGRFTISRDNSKNTLYLQMNSLRAEDTAVYYCAKLSGKFDYWGQGTLVTVSS
notes: dAb

Kd [3]: 1.01 nM
KINASE ASSAY IC50, average [4]: 8.69 nM
KINASE ASSAY IC50, highest value [4]: 11.1 nM
KINASE ASSAY IC50, lowest value [4]: 6.82 nM
IC50 [5]: 1.05 nM
IC50 [6]: 0.746 nM
IC50 [7]: 1.47 nM
B4: DOM16-39-109 (other)
chain: DIQMTQSPTSLSASVGDRVTITCRASQWIGNLLDWYQQKPGEAPKLLIYYASFLQSGVPSRFSGGGFGTDFTLTISSLQPEDFATYYCQQANPAPLTFGQGTKVEIKR
notes: anti-EGFR dAb
